assay: yeast display, Sf9 membrane polyspecificity reagent, FACS + sequencing; frameworks hold sequencing errors
Outline: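 Nanobodies came from a synthetic yeast display library in Saccharomyces cerevisiae BJ5465, induced with galactose for 36–48 hours and stained for 1 hour at 4 °C with 10% biotinylated, detergent-solubilized Sf9 membrane reagent. Cells were enriched on streptavidin microbeads and then FACS-sorted, with low and high (top ~1%) gates set on anti-HA fluorescence for expression and streptavidin fluorescence for reagent binding. Each polyreactivity label reflects the gate a clone came from. Genes were amplified by colony PCR, sequenced by MiSeq 2 × 250 and filtered by CDR length.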

Sequence | polyreactivity (PSR sort gate)
QVQLVESGGGLVQAGGSLRLSCAASGRIFSHKAMGWYRQAPGKERELVAGISSGGGTTYADSVKGRFTISRDNAKNTVYLQMNSLKPEDTAVYYCNKQDQPVGRSGYPYGYDYWGQGTQVTVSS | low polyreactivity
QVQLVESGGGLVQAGGSLRLSCAASGRIFSHYAMGWYRQAPGKERELVAAITSDGSTNYADSVKGRFTISRDNAKNTVYLQMNSLKPEHTAVYYCAKYVHIPYYYYLFGSYDYWGQGTQLTVSS | low polyreactivity
QVQLVESGGGLVQAGGSLRLSCAASGRIFSKNAMGWYRPAPGKERELVAAISSGGSTYDADSVKGRFTISRDNAKNTVYLQMNSLKPEDTAVYYCAARKRGYYWGQGTQVTVSS | high polyreactivity
QVQLVESGGGLVQAGGSLRLSCAASGRIFSKYAMGWYRQAPGKARELVAAISTSTGSTYYADSVKGRFTISRDNAKNTVYLQMNSLKPEDTAVYYCAAVGSRWFSQTWRDYWGQGTQVTVSS | high polyreactivity
QVQLVESGGGLVQAGGSLRLSCAASGRIFSKYAMGWYRQAPGKDRELVAAISWSGGRTYYADSVKGRFTISRDNAKNTVYLQMNSLKPEDAALYYCAASFYTGYDYWGQGTQVTVSS | high polyreactivity
QVQLVESGGGLVQAGGSLRLSCAASGRIFSLNAMGWYRQAPGKERELVAGIRKRGGSTYYADSVKGRFTISRDNAKNTVYLQMNSLKPEDTAVYYCAAQPALTYRFYYWGQGTQVTVSS | high polyreactivity
QVQLVESGGGLVQAGGSLRLSCAASGRIFSLNAMGWYRQAPGKERELVAGIRKRGGSTYYADSVKGRFTISRDNAKNTVYLQMNSLKPEHTAVYYCAAQPALTYRFYYWGQGTQVTVSS | high polyreactivity
QVQLVESGGGLVQAGGSLRLSCAASGRIFSNNAMGWYRQAPGNERELVAAISSSGGSTYYADSVKGRFTISRDNAKNTVYLQMNSLKPEDTAVSYCNVGRRKIDDYWGQGTQVTVSS | high polyreactivity
QVQLVESGGGLVQAGGSLRLSCAASGRIFSNYAMGWYRQAPGKERELVAAISRGGGRTFYADSVKGRFTISRDNAKNTVYLQMNSLKPEDTAVYYCATRSYYVKGDYWGQGTQVTVSS | high polyreactivity
QVQLVESGGGLVQAGGSLRLSCAASGRIFSNYAMGWYRQAPGKERELVAAISSSGGRTYYADSVKGRFTISRDNAKNTVYLQMNSLKPEDTAVYYCARRHTGTKFAFYYWGQGTQVTVSS | high polyreactivity
QVQLVESGGGLVQAGGSLRLSCAASGRIFSPNAMGWYRQAHVKERELVADITFGDGSTYYADSVKGRFTISRDNAKNTVYLQMNSLIPEDTAVYYCAAELYYLYALYIYYPFYYWGQGTQVTVSS | high polyreactivity
QVQLVESGGGLVQAGGSLRLSCAASGRIFSQNAMGWYRQAPGKERELVAAISGGSTNYADSVKGRFTISRDNAKNTVFLQMNSLKPEDTAVYYCAADAPFKMDYWGQGTQVTVSS | low polyreactivity
QVQLVESGGGLVQAGGSLRLSCAASGRIFSQNAMGWYRQAPGKEREVVAVISRGGSTNYADSVKGRFTISRDNAKNTVYLQMNSLKPEDTAVYYCAADYAYIRSVWKWFIGDYWGQGTQVTVSS | low polyreactivity
QVQLVESGGGLVQAGGSLRLSCAASGRIFSQYAMGWNRQAPGKERELVAAITWRGASTYYADSVKGRFTISRDNAKNTVYLQMNSLKPEDTAVYYCAAGYPQGRYYRVRWVGYWGQGTQVTVSS | high polyreactivity
QVQLVESGGGLVQAGGSLRLSCAASGRIFSQYAMGWYRQAPGKERELVAAISRRTGSTYYADSVKGRFTISRDNAKNTVYLQMNSLKPEDTAVYYCNKARLGWSYRQDDYWGQGTQVTVSS | high polyreactivity
QVQLVESGGGLVQAGGSLRLSCAASGRIFSRNAMGWYRQAPGKERELVAAISSSAGSTYYADSVKGRFTISRDNAKHTVYLQMNSLKPEDTAVYYCGAESVGDMDYWGQGTQVSVSS | low polyreactivity

Sequence | polyreactivity (PSR sort gate)
QVQLVESGGGLVQAGGSLRLSCAASGRIFSRNAMGWYRQAPGKERELVAAITRRGGSTYYADSVKGRFTISRDNAKNTVYLQMNSLKPEDTAVYYCATVTYSGSVDYDYWGQGTQVTVSS | high polyreactivity
QVQLVESGGGLVQAGGSLRLSCAASGRIFSRNDMGWYRQSPGKERELVAAITRIGGSTYYADSVKGRITISRDNAKNTVYLQMNSLKPEDNAVYYCAARGSGKYGWGQGSQVTVSS | high polyreactivity
QVQLVESGGGLVQAGGSLRLSCAASGRIFSRNTMGWYRQAPGKERELVATITSAGSTTYADSVKGRFTISRDNAKNTVYLQMNRLKPEDTAVYYCAARSWKRRVGRDYWGQGTQVTVSS | high polyreactivity
QVQLVESGGGLVQAGGSLRLSCAASGRIFSRYAMGWYRKAPGKERELVAAITQSGTSTYYADSVKGRFTFSRDNAKNTVYLQMNCLKPEDTAVYYCNAYRQYRYDYWGQGTQVTVSS | low polyreactivity
QVQLVESGGGLVQAGGSLRLSCAASGRIFSRYAMGWYRQAPGKERELDAAINKSGGSTYYADSVKGRFTISRDNAKHTVYLQMNSLKPEDTAVYYCAADGRLRGYGYWGQGTQVTVSS | high polyreactivity
QVQLVESGGGLVQAGGSLRLSCAASGRIFSRYAMGWYRQAPGKERELVAAINKSGGSTYYADSVKGRFTISRDNAKNTVYLQMNSLKPEDTAVYYCNAVYYYGRRRYGYWGQGTQVTVSS | high polyreactivity
QVQLVESGGGLVQAGGSLRLSCAASGRIFSRYAMGWYRQAPGKERELVAAINKSGGSTYYADSVKGRFTISRDNEKYTVYLQMNSLKPEDTAVDYCNAVYYWYKGDYWGQGTQVTVSS | high polyreactivity
QVQLVESGGGLVQAGGSLRLSCAASGRIFSRYAMGWYRQAPGKERELVAAISWSGGSTYYADSVKGRFTISRDNAKNNVYLQMNSLKPEDTAVYYCAARRSYSYGSWGQGTQVTVSS | high polyreactivity
QVQLVESGGGLVQAGGSLRLSCAASGRIFSRYAMGWYRQAPGKERELVAVISRSGADTYYADSVKGRFTISRDNAKNTVYLQMNSLKPEDTAVFYCNAYSARRPHPMCYDSWGQGTQVTVSS | high polyreactivity
QVQLVESGGGLVQAGGSLRLSCAASGRIFSRYTMGWYRQAPGKERELVAAISRRGGSTNYADSVKGRFTISRDNAKNTVYLQMNSLKPEDTAVYYCAAHGPFVRSQSLRSGRFDYWGQGTQVTVSS | high polyreactivity
QVQLVESGGGLVQAGGSLRLSCAASGRIFSRYTMGWYRQAPGKERELVAAISYRGGSTYYADSVKGRFTISRDNAKNTVYLQMNSLKPEDTAVYYCAARVQAIYRYDYWGQGTQVTVSS | high polyreactivity
QVQLVESGGGLVQAGGSLRLSCAASGRIFSRYVMGWYRQAPGKERELVAAITRNGGNTYYADSVTGRFTISRDNAKNTVYLQMNSLKPEDTAVYYCAGRAVLKSWAYYYWGQGTQVTVSS | high polyreactivity
QVQLVESGGGLVQAGGSLRLSCAASGRIFSSKAMGWYRQAPGKERELVAAISWIVGRTYYADSVKGRFTISRDNAKNTVYLQMNSLIPEATAVYYCAKGSYYVRNRGWGYDYWGQGTQVTVSS | high polyreactivity
QVQLVESGGGLVQAGGSLRLSCAASGRIFSSNAMGWYRQAPGKERELVASINRGDRTYYADSVKGRFTISRDNAKNTVYLQMNSLKPEDTAVYYCAAARTYGKKYGYWGQGTQVTVSS | high polyreactivity
QVQLVESGGGLVQAGGSLRLSCAASGRIFSSYAMGWYRQAPGKERELVAAIRYDAGSTYYADSVKGRFTISRDHAKNTVYLQMNSLKPEDTAVYYCAARIYFEQWSWYGYWGQGTQVTVSS | high polyreactivity
QVQLVESGGGLVQAGGSLRLSCAASGRIFSSYTMGWYRQAPGKERELVATITLRGGRTYYADSVKGRFTISRDNAKNTVYLQMNSLKPEDTAVYYCAATYLTYYHRFNYWGQGTQVTVSS | high polyreactivity
